Measurements published in the Human Domainome abundance scans (Beltran et al. 2025).
± gives the uncertainty stated by the source.

B1: POU domain, class 4, transcription factor 1, residues 266 to 347; numbered along this chain, Q01851 (parent)
chain: RELEAFAERFKQRRIKLGVTQADVGSALANLKIPGVGSLSQSTICRFESLTLSHNNMIALKPILQAWLEEAEGAQREKMNKP

Variants of: B1
Assay: abundance fitness (aPCA) (normalised: wild type 0, dead -1); higher = more abundant; growth selection in yeast, the domain comes from the species named
Settings: Homo sapiens

Point of comparison: Q21T, abundance fitness -0.072 ± 0.055. Against it:
- A74Q — within error, -0.029 ± 0.034
- L50I — within error, -0.13 ± 0.043
- L50M — higher, 0.055 ± 0.045
- L50E — lower, -0.26 ± 0.057
- L50R — within error, 0.012 ± 0.036
- E4N — within error, -0.086 ± 0.097
- E4A — within error, -0.071 ± 0.048
- E4D — within error, -0.031 ± 0.059
- E4R — within error, -0.065 ± 0.034
- E4F — within error, -0.054 ± 0.08
- E4T — within error, -0.031 ± 0.053
- E4Q — within error, -0.035 ± 0.059
- G35S — within error, -0.29 ± 0.23
- L52F — within error, -0.24 ± 0.47
- Q41I — within error, 0.074 ± 0.14
- A5D — within error, -0.043 ± 0.085
- A5N — within error, 0.106 ± 0.16
- A5L — higher, 0.037 ± 0.044
- A5I — higher, 0.184 ± 0.14
- A5S — within error, -0.005 ± 0.073
- A5K — within error, 0.042 ± 0.087
- A5C — within error, -0.162 ± 0.099
- A5M — within error, 0.016 ± 0.074
- S42K — higher, 0.093 ± 0.065
- S42I — within error, -0.034 ± 0.093
- S42C — within error, -0.071 ± 0.055
- S42A — within error, 0.012 ± 0.05
- S42Q — within error, -0.113 ± 0.065
- I44V — higher, 0.029 ± 0.044
- I44K — lower, -1.04 ± 0.24
- I44M — lower, -0.437 ± 0.086
- I44Q — lower, -0.989 ± 0.34
- I44Y — lower, -1.01 ± 0.42
- I44A — lower, -1.18 ± 0.21
- I44E — lower, -0.814 ± 0.12
- L31T — higher, 0.051 ± 0.035
- L31C — within error, -0.057 ± 0.037
- L31H — within error, -0.014 ± 0.058
- L31G — lower, -0.223 ± 0.024
- L31K — higher, 0.038 ± 0.039
- L31I — within error, -0.028 ± 0.052
- L31V — within error, -0.006 ± 0.025
- L31D — within error, -0.152 ± 0.046
- G73R — within error, -0.054 ± 0.045
- G73M — within error, -0.065 ± 0.06
- G73F — within error, -0.056 ± 0.16
- G73H — within error, -0.068 ± 0.15
- G73K — within error, -0.046 ± 0.073
- G73L — higher, 0.056 ± 0.048
- N30Q — within error, 0.026 ± 0.071
- N30M — within error, -0.104 ± 0.09
- N30C — lower, -0.337 ± 0.17
- N30T — within error, -0.046 ± 0.077
- E8M — within error, -0.069 ± 0.089
- E8D — within error, -0.13 ± 0.16
- E8L — within error, 0.018 ± 0.066
- E8R — within error, -0.002 ± 0.046
- E48P — lower, -0.856 ± 0.076
- E48M — lower, -1.23 ± 0.19
- E48Y — lower, -1.05 ± 0.12
- E48N — lower, -0.973 ± 0.11
- R14V — lower, -0.932 ± 0.062
- R14H — lower, -1.16 ± 0.14
- R14N — lower, -0.923 ± 0.12
- R14Q — lower, -1.08 ± 0.12
- K32T — within error, 0.025 ± 0.076
- K32N — within error, -0.076 ± 0.27
- K32M — within error, 0.018 ± 0.089
- K32V — within error, -0.009 ± 0.059
- K32Q — within error, -0.022 ± 0.11
- P34G — within error, -0.088 ± 0.024
- P34N — within error, -0.133 ± 0.063
- E2T — lower, -0.195 ± 0.039
- E2D — higher, 0.023 ± 0.039
- E2P — lower, -0.437 ± 0.04
- E2M — lower, -0.17 ± 0.036
- E2W — lower, -0.508 ± 0.038
- E2C — lower, -0.306 ± 0.046
- A59F — within error, 0 ± 0.095
- A59Y — the same, -0.072 ± 0.12
- A59Q — higher, 0.056 ± 0.071
- T51D — higher, 0.034 ± 0.046
- T51N — within error, -0.042 ± 0.04
- T51Q — higher, 0.054 ± 0.038
- T51R — within error, -0.017 ± 0.035
- S49N — higher, 0.061 ± 0.045
- S49R — within error, -0.073 ± 0.029
- K78W — within error, 0.007 ± 0.063
- K78R — higher, 0.047 ± 0.051
- K78Q — within error, -0.045 ± 0.12
- K78G — within error, -0.036 ± 0.045
- K78F — within error, 0.003 ± 0.23
- K78P — within error, -0.048 ± 0.12
- K78D — within error, -0.153 ± 0.14
- K78V — within error, -0.019 ± 0.057
- G37F — within error, -0.149 ± 0.045
- G37E — within error, 0.015 ± 0.032
- G37S — within error, -0.047 ± 0.032
- G37W — lower, -0.328 ± 0.036
- G37Y — within error, -0.054 ± 0.053
- V24T — lower, -0.544 ± 0.096
- V24F — lower, -0.337 ± 0.14
- V24A — lower, -0.241 ± 0.055
- V24E — lower, -0.679 ± 0.088
- R46V — lower, -0.503 ± 0.071
- R46G — within error, -0.038 ± 0.038
- R46S — within error, -0.009 ± 0.059
- R46L — within error, -0.176 ± 0.05
- R46N — within error, 0.047 ± 0.2
- R13W — lower, -0.321 ± 0.05
- E72S — lower, -0.229 ± 0.06
- E72Q — within error, -0.21 ± 0.12
- E72V — lower, -0.35 ± 0.045
- E72M — lower, -0.349 ± 0.074
- E72W — lower, -0.415 ± 0.065
- E72G — lower, -0.267 ± 0.046
- L60G — lower, -0.696 ± 0.48
- L60C — within error, 0.074 ± 0.17
- L60T — lower, -0.452 ± 0.31
- L60H — within error, -0.392 ± 0.29
- L60E — lower, -0.581 ± 0.26
- L60W — lower, -0.605 ± 0.2
- A29P — within error, -0.184 ± 0.16
- A29C — within error, 0.128 ± 0.36
- A29W — within error, -0.605 ± 0.5
- S53V — lower, -0.389 ± 0.055
- S53A — within error, -0.039 ± 0.043
- S53Y — within error, -0.131 ± 0.19
- S53N — within error, -0.114 ± 0.1
- S53L — lower, -0.518 ± 0.094
- S53W — lower, -0.533 ± 0.094
- S53Q — within error, -0.013 ± 0.07
- Q21E — within error, -0.023 ± 0.049
- Q21C — within error, -0.083 ± 0.064
- E70H — within error, -0.077 ± 0.046
- E70T — within error, -0.026 ± 0.035
- E70A — within error, -0.07 ± 0.027
- E70Y — within error, -0.145 ± 0.046
- L17A — lower, -0.346 ± 0.038
- L17K — lower, -0.62 ± 0.052
- L17S — lower, -0.608 ± 0.035
- L17F — lower, -0.309 ± 0.039
- L17T — lower, -0.779 ± 0.058
- L17Q — lower, -0.668 ± 0.052
- A27Q — within error, -0.046 ± 0.058
- A27G — within error, -0.153 ± 0.038
- A27R — within error, -0.081 ± 0.036
- A27C — within error, 0.01 ± 0.076
- A27L — lower, -0.288 ± 0.06
- A27Y — within error, -0.041 ± 0.19
- D23M — within error, -0.022 ± 0.1
- D23P — lower, -0.913 ± 0.44
- S26A — within error, 0.011 ± 0.045
- S26V — within error, -0.049 ± 0.044
- S26H — within error, -0.005 ± 0.13
- F10E — lower, -0.916 ± 0.053
- A7G — lower, -0.594 ± 0.028
- A7K — lower, -0.489 ± 0.04
- A7V — within error, 0.007 ± 0.025
- G18D — lower, -0.394 ± 0.12
- G18K — within error, -0.167 ± 0.21
- K81F — within error, 0.198 ± 0.27
- K81Y — within error, -0.224 ± 0.12
- K81W — within error, 0.027 ± 0.056
- K81L — within error, 0.043 ± 0.07
- K81Q — within error, -0.042 ± 0.18
